Assay results published in the supplement of paper PMC12042874.
± gives the uncertainty stated by the source.

Test: amyloid nucleation score (Sup35N fusion, yeast selection) (log enrichment); library NNK2; higher = more nucleation; inactive = no reads after selection
Outline: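 Peptides of 20 random codons fused to Sup35N were expressed in psi-negative yeast, induced 24 hours with 100 μM copper sulfate, then grown 7 days at 30°C on medium lacking adenine and uracil. Input and output plasmid inserts were Illumina-sequenced. Nucleation score is the DiMSum log enrichment of output over input reads, centred on the mode score of non-aggregating sequences, excluding sequences with under 100 input reads. Random libraries had three technical output replicates.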
Work on FNYWPYVLNWWELLYQDDAT yielded an amyloid nucleation score of 1.11 ± 0.23. Substance TNDLIRKFTLYMNQCDFNWS has an amyloid nucleation score of -0.633 ± 1.1. Substance TRSDMLVLLCIIMCFSYSYP has an amyloid nucleation score of 6.31 ± 0.09. ISPNALEAQMPTQCNYEDGE showed an amyloid nucleation score of 0.451 ± 0.48. In the case of IFCRIDYIYVYLHHVYVTVQ, the amyloid nucleation score is reported as 5.228 ± 0.036. Work on SELPDIRWHTGWMFLSCAWN yielded an amyloid nucleation score of -0.397 ± 0.63. ADMIMRYKG showed an amyloid nucleation score of 0.879 ± 0.57. Substance PYMPGRMWSRILSVCSVCCV has an amyloid nucleation score of 1.48 ± 0.58. With LWPVCALDEGL the amyloid nucleation score was 0.669 ± 0.62. With CINLTLYFMQ the amyloid nucleation score was 9.091 ± 0.053. NLTYWLVLLRFKKLTDGEHE showed an amyloid nucleation score of -0.259 ± 0.3. For MIYSVMFNVNGACTYNCRII, the amyloid nucleation score was 7.478 ± 0.055. Substance FGESTSEGYA has an amyloid nucleation score of 3.33 ± 0.12. Substance AYYCLRDLEVEYKVGYGSRL has an amyloid nucleation score of 2.64 ± 0.21. Work on RWSFRLSTAIQGQPWSTPGD yielded an amyloid nucleation score of 5.95 ± 0.06. For KVIPVALNTRIAWGTHRLMM, the amyloid nucleation score was 0.958 ± 0.27. With RYNESEVSISRETRNVVLTF the amyloid nucleation score was 0.712 ± 0.26. Work on NDSSLCSSVRPIRMREEFDK yielded an amyloid nucleation score of -0.099 ± 0.25. Substance IAFYMLSWGMMLV has an amyloid nucleation score of -0.074 ± 0.8. For DIWIMI, the amyloid nucleation score was -0.225 ± 0.45. AILRRVKIQLPRIPPEYCGW gave an amyloid nucleation score of 0.884 ± 0.49. Work on NFACVFHGVDFYRTDSSCRK yielded an amyloid nucleation score of 5.17 ± 0.072. With RSSGLIGLGWKQI the amyloid nucleation score was -1.67 ± 0.75. For NECRVDFE, the amyloid nucleation score was -0.668 ± 0.56. In the case of NSRYPDRGILKLVV, the amyloid nucleation score is reported as 0.409 ± 0.65. Substance RYQFSATPGVVRWKFEEYSD has an amyloid nucleation score of -0.047 ± 0.46. In the case of KDTRVVYVPSFYLWNLDAVK, the amyloid nucleation score is reported as -0.551 ± 0.61. With YNPNCPCICS the amyloid nucleation score was 6.823 ± 0.026. QGVSVLFGVSATLY gave an amyloid nucleation score of 1.19 ± 0.26. FCGIGSPHYGRSAALQLRLM gave an amyloid nucleation score of 0.708 ± 0.37. RFGSLVFFCTGFERSWHTSA gave an amyloid nucleation score of 0.684 ± 0.44. With FVSGRVQLQASGLVRGNRWV the amyloid nucleation score was “inactive”. In the case of YYEIIWYTFQEKLSGCSSCS, the amyloid nucleation score is reported as -2.02 ± 0.75. TLIDYYFYYCYGKSVDKAGL showed an amyloid nucleation score of -0.749 ± 0.45. Substance SYSVQAALVCVFGGCNHVGS has an amyloid nucleation score of 9.383 ± 0.048. PTGPNSGNCIVLCPSDKSHE showed an amyloid nucleation score of -0.363 ± 1.1. In the case of VQVCKMICRFISLWGLLA, the amyloid nucleation score is reported as 0.006 ± 0.44. In the case of NWHGSIFFIW, the amyloid nucleation score is reported as 5.708 ± 0.049. VNLWCRYDWGVPGDSWGRDG gave an amyloid nucleation score of 2.92 ± 0.078. With TFHGNYFVDTSA the amyloid nucleation score was “inactive”. With QKNTSQCFVLSW the amyloid nucleation score was 0.129 ± 0.49. For MLCVFRVLPMLNWY, the amyloid nucleation score was -0.257 ± 0.48. HGDMYRRQDVVSGSNE showed an amyloid nucleation score of 0.153 ± 0.49. SYDSPPSEHLVPVAQSISVP gave an amyloid nucleation score of 1.17 ± 0.44. Substance VLSNLIFYLSPFCIMHLMR has an amyloid nucleation score of 3.27 ± 0.13. For ESILKHSMPSYGFFLF, the amyloid nucleation score was “inactive”. Substance LALMFLYAALFHAAR has an amyloid nucleation score of 7.139 ± 0.058. With NSHRKNHFIGGWDFTCEIYN the amyloid nucleation score was “inactive”. In the case of SVLIFATRKCLYFYLGFMR, the amyloid nucleation score is reported as -1.66 ± 0.45. With EKHWSFFTGMSVSHRLFRQN the amyloid nucleation score was “inactive”. Substance WHGPYYCGGCRTDIVCWNRA has an amyloid nucleation score of 5.888 ± 0.05. Work on RNLGSCY yielded an amyloid nucleation score of -0.08 ± 0.46. Substance KLPAVNLVVMREWKALRFGV has an amyloid nucleation score of -0.48 ± 0.33. Substance KGSEPLYGLCIIMV has an amyloid nucleation score of 0.851 ± 0.8. Substance TIFWLTISCQRYRD has an amyloid nucleation score of 1.46 ± 0.13. Substance RVYPFGRTRIFKTM has an amyloid nucleation score of 1.33 ± 0.15. With YVCVYTDF the amyloid nucleation score was -1.38 ± 0.55. Work on KPIVITLLLSDCVRM yielded an amyloid nucleation score of 9.498 ± 0.026. CTCQVFPHNALCQGSWVLPV gave an amyloid nucleation score of 1.07 ± 0.27. Substance SSKLLYM has an amyloid nucleation score of -0.059 ± 0.55. CKPRNLLLLSPKPIVLCKDF showed an amyloid nucleation score of -1.21 ± 0.79. In the case of LNAWQKEINDALSPLSYPDS, the amyloid nucleation score is reported as 0.274 ± 1.1. With NKLLHHFILGAEESLLEIMY the amyloid nucleation score was “inactive”. SRSSHLM gave an amyloid nucleation score of 0.073 ± 0.37. Work on WLWIKLEPLICSNFCWVVLW yielded an amyloid nucleation score of 0.537 ± 0.48. In the case of TLEKSFPLEFVV, the amyloid nucleation score is reported as 0.204 ± 0.65. LILTCPCMCRFYVWGSTQYR gave an amyloid nucleation score of -0.313 ± 0.39. With MYYYSSCKNVQKSHPSSRMQ the amyloid nucleation score was “inactive”. ARWWMSSKRR gave an amyloid nucleation score of 0.026 ± 0.65. In the case of CILSYVQEMTMEPYLSKSLS, the amyloid nucleation score is reported as -0.296 ± 0.76. In the case of LFMLYCFHLQDMKRVQICVH, the amyloid nucleation score is reported as 0.188 ± 0.19. Work on RHTYVHYAHKVYLESFLGCG yielded an amyloid nucleation score of 6.327 ± 0.04. RSHAT showed an amyloid nucleation score of 0.579 ± 0.33. For YLCGFNIVPHRYINFRVWTE, the amyloid nucleation score was 4.39 ± 0.11. Work on VHCCFGACGCSSWRLNLLAS yielded an amyloid nucleation score of 0.092 ± 0.49. LLHNIDVRTSRME showed an amyloid nucleation score of -0.846 ± 0.44. In the case of LSYRVRCIRMNMLSSALGTM, the amyloid nucleation score is reported as “inactive”. In the case of RFSDM, the amyloid nucleation score is reported as -0.126 ± 0.31. With LLWSTILMFWF the amyloid nucleation score was “inactive”. Work on LEVLVLDVYSYVSLHVGTFV yielded an amyloid nucleation score of 0.051 ± 0.35. For ACYIR, the amyloid nucleation score was 1.02 ± 0.17. Substance VFLSGINH has an amyloid nucleation score of -1.18 ± 1.1. RISNVWENTFTLSAGSWGVR gave an amyloid nucleation score of 1.38 ± 0.22. In the case of QCYVIYS, the amyloid nucleation score is reported as 4.513 ± 0.029. In the case of HCVLYCNMALFLQRSHRASC, the amyloid nucleation score is reported as 8.484 ± 0.039. SILFFKGGLRRSLEHLACTA showed an amyloid nucleation score of 0.635 ± 0.52. Work on SSQCYYGPLFWSYEFRSYCV yielded an amyloid nucleation score of -0.162 ± 0.46.
